Test results reported in patent US20170189507A1.

molecular target: HLA-A*24 (human); assay: UV-ligand exchange ELISA

Binder | peptide exchange yield [%]
VYGFQWRHF [peptide SEQ ID No 276] | > 75
KFVDSTFYL [peptide SEQ ID No 282] | > 75
IYQLDTASI [peptide SEQ ID No 182] | 50 to 75
LYLDIINLF [peptide SEQ ID No 181] | > 75
EYQENFLSF [peptide SEQ ID No 206] | 50 to 75
YYVESGKLF [peptide SEQ ID No 166] | > 75
LYHDIFSRL [peptide SEQ ID No 271] | > 75
KYIPYKYVI [peptide SEQ ID No 223] | 50 to 75
DYTTWTALL [peptide SEQ ID No 165] | > 75
QYLQDAYSF [peptide SEQ ID No 272] | > 75
EFGSLHLEFL [peptide SEQ ID No 194] | < 20
VFKASKITF [peptide SEQ ID No 191] | 50 to 75
KYMVYPQTF [peptide SEQ ID No 267] | > 75
LYNKGFIYL [peptide SEQ ID No 159] | > 75
VYPWLGALL [peptide SEQ ID No 177] | > 75
SYALLTYMI [peptide SEQ ID No 192] | > 75
EYSLFPGQVVI [peptide SEQ ID No 197] | 50 to 75
NYINRILKL [peptide SEQ ID No 167] | > 75
YYEVHKELF [peptide SEQ ID No 175] | > 75
EYPLVINTL [peptide SEQ ID No 219] | 50 to 75
TYIESASEL [peptide SEQ ID No 279] | 50 to 75
QYLENLEKL [peptide SEQ ID No 224] | 50 to 75
VYVSDIQEL [peptide SEQ ID No 288] | 50 to 75
RYLNKAFHI [peptide SEQ ID No 284] | 50 to 75
VYEDQVGKF [peptide SEQ ID No 170] | 20 to 49

Binder | peptide exchange yield [%]
IFLDYEAGTLSF [peptide SEQ ID No 227] | > 75
RYSTGLAGNLL [peptide SEQ ID No 221] | 50 to 75
VFQNFPLLF [peptide SEQ ID No 184] | > 75
TYLRDQHFL [peptide SEQ ID No 187] | > 75
IYKVGAPTI [peptide SEQ ID No 185] | 50 to 75
YYLEVGKTLI [peptide SEQ ID No 211] | > 75
RFHPTPLLL [peptide SEQ ID No 193] | > 75
VYTLDIPVL [peptide SEQ ID No 160] | > 75
WYVNGVNYF [peptide SEQ ID No 189] | 20 to 49
YFDKVVTL [peptide SEQ ID No 215] | 20 to 49
TYGDAGLTYTF [peptide SEQ ID No 283] | 50 to 75
RYISDQLFTNF [peptide SEQ ID No 278] | > 75
AYLHSHALI [peptide SEQ ID No 274] | > 75
VYVGGGQIIHL [peptide SEQ ID No 174] | 50 to 75
VHIPEVYLI [peptide SEQ ID No 205] | 50 to 75
TYIKPISKL [peptide SEQ ID No 273] | 50 to 75
IYLVSIPEL [peptide SEQ ID No 161] | > 75
RYPDNLKHL [peptide SEQ ID No 286] | 20 to 49
IFIEVFSHF [peptide SEQ ID No 178] | 50 to 75
EYINQGDLHEF [peptide SEQ ID No 275] | 50 to 75
KYQDILETI [peptide SEQ ID No 168] | > 75
YYVYIMNHL [peptide SEQ ID No 225] | 50 to 75
KYPVEWAKF [peptide SEQ ID No 289] | > 75
TYSVSFPMF [peptide SEQ ID No 195] | > 75
RYFKGLVF [peptide SEQ ID No 188] | 50 to 75

Binder | peptide exchange yield [%]
KFSSFSLFF [peptide SEQ ID No 164] | 50 to 75
TYTTVPRVAF [peptide SEQ ID No 172] | > 75
LYLKLWNLI [peptide SEQ ID No 214] | 50 to 75
AYTLIAPNI [peptide SEQ ID No 169] | 50 to 75
LYLDKATLI [peptide SEQ ID No 198] | 50 to 75
QYSSVFKSL [peptide SEQ ID No 216] | > 75
MYDSYWRQF [peptide SEQ ID No 179] | > 75
GFFIFNERF [peptide SEQ ID No 190] | 50 to 75
FFPPTRQMGLLF [peptide SEQ ID No 217] | > 75
VYRDETGELF [peptide SEQ ID No 226] | 50 to 75
IYDDSFIRPVTF [peptide SEQ ID No 180] | 50 to 75
VFTRVSSFL [peptide SEQ ID No 162] | 50 to 75
KYTSWYVAL [peptide SEQ ID No 228] | > 75
TYTQDFNKF [peptide SEQ ID No 208] | 50 to 75
IFPQFLYQF [peptide SEQ ID No 186] | > 75
LYIDRPLPYL [peptide SEQ ID No 196] | 50 to 75
FYSRLLQKF [peptide SEQ ID No 203] | 50 to 75
IYSWILDHF [peptide SEQ ID No 173] | > 75
HYSQELSLLYL [peptide SEQ ID No 158] | > 75
LFIPSSKLLFL [peptide SEQ ID No 171] | 50 to 75
EYNQWFTKL [peptide SEQ ID No 176] | 50 to 75
RYPDNLKHLYL [peptide SEQ ID No 280] | > 75
IYTMIYRNL [peptide SEQ ID No 210] | > 75
VFTSTARAF [peptide SEQ ID No 183] | 50 to 75
DYLKGLASF [peptide SEQ ID No 163] | > 75
